The values below come from US20050260657A1.

Test [1] addresses endogenous IP3R1 of HeLa cells (UniProt Q14643). Put plainly: cell-based or functional assay.
For test [2], the target named is IP3R1 (inositol 1,4,5-trisphosphate receptor type 1), untagged, expressed in cells (mouse) (UniProt P11881). Put plainly: cell-based or functional assay.

Chain of endogenous IP3R1 of HeLa cells (Q14643 whole entry): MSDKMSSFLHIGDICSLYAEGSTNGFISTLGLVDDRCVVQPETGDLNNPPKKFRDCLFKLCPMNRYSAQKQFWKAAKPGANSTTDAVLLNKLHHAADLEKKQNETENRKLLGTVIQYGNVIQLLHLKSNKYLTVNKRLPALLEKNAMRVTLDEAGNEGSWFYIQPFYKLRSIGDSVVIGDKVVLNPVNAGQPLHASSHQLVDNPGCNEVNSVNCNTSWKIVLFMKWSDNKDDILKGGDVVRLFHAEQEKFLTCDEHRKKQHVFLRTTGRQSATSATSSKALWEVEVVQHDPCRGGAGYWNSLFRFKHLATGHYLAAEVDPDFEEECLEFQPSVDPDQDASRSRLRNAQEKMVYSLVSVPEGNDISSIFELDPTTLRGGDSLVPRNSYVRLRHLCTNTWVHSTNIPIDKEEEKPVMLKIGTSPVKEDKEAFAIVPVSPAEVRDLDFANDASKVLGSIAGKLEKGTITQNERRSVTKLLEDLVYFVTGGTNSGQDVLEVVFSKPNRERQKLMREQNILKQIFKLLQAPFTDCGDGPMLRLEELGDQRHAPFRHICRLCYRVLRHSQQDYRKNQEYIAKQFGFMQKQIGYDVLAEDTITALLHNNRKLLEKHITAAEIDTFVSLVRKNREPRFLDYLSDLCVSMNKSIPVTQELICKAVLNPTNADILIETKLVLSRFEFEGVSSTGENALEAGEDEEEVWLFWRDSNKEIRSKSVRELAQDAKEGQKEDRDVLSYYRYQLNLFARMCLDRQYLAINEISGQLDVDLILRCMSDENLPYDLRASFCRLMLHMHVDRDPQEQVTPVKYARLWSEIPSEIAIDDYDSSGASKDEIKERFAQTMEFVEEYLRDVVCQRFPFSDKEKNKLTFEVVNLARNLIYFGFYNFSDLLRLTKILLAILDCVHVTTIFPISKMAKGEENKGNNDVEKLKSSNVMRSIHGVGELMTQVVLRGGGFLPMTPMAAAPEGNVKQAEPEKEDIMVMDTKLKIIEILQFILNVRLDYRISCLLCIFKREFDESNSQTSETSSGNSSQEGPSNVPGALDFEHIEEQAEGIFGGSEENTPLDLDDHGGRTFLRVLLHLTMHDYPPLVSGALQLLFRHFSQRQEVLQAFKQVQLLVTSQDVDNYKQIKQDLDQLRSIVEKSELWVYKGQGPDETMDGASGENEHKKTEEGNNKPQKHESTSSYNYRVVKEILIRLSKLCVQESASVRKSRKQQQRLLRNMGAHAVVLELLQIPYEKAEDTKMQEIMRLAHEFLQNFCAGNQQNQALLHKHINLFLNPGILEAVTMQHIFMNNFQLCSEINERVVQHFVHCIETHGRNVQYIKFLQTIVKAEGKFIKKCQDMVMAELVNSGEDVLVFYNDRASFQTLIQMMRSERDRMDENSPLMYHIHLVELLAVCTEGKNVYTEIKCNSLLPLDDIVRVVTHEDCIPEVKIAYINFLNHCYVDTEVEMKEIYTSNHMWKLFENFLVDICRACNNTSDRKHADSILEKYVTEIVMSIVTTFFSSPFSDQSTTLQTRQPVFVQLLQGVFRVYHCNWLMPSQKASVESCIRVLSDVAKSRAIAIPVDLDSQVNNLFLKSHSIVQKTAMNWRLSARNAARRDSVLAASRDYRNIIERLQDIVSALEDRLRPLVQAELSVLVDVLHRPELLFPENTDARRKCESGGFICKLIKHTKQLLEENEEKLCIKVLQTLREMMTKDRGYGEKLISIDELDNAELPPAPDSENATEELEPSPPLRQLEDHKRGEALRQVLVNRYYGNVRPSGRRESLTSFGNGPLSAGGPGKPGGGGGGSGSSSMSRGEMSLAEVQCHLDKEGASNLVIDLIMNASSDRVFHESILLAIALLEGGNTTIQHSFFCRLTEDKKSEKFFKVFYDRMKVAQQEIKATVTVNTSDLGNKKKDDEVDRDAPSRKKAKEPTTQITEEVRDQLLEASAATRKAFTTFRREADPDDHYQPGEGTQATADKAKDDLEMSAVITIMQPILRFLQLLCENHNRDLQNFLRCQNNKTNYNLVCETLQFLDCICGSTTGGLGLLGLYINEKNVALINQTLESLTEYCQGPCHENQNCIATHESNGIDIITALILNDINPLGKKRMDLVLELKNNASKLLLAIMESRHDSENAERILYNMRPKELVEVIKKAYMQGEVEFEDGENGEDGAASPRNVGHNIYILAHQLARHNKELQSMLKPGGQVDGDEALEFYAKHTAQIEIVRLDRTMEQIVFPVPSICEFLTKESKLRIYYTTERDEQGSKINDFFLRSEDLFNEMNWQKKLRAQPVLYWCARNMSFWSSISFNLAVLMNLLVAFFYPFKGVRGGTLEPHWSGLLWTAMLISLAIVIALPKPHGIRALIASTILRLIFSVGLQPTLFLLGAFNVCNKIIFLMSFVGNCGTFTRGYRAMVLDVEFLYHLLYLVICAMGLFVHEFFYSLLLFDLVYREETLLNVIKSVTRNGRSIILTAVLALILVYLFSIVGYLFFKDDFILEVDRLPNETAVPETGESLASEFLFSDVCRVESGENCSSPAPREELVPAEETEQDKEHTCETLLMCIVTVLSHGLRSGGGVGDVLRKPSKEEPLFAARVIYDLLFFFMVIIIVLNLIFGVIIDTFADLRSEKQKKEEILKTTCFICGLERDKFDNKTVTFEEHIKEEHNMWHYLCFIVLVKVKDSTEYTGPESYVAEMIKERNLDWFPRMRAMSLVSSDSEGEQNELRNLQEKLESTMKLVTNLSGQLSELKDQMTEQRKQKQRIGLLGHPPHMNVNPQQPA

In turn, “RFP-ERp44 (red fluorescent protein-tagged ERp44) (from UniProt Q9D1Q6 30-406)” yielded a peak amplitude of ATP-induced Ca2+ transient in HeLa cells, percent of non-transfected cells in test [1] of 69.3%. Also, the peak amplitude of BCR-induced Ca2+ release in DT40-KMN60 cells, percent of non-transfected cells in test [2] came to 60.6%.

Regarding “RFP-ERp44-C58S (from UniProt Q9D1Q6 30-406)”, the Ca2+ response in siERp44-3U-pretreated HeLa cells compared with RFP-RDEL-transfected cells in test [1] was found to be 77.1%.
